The values that follow come from patent US20150259666.

In this data set the target is Human PAI-1 (plasminogen activator inhibitor-1), P05121.
Human PAI-1 (plasminogen activator inhibitor-1), P05121, sequence (P05121 whole entry, looked up): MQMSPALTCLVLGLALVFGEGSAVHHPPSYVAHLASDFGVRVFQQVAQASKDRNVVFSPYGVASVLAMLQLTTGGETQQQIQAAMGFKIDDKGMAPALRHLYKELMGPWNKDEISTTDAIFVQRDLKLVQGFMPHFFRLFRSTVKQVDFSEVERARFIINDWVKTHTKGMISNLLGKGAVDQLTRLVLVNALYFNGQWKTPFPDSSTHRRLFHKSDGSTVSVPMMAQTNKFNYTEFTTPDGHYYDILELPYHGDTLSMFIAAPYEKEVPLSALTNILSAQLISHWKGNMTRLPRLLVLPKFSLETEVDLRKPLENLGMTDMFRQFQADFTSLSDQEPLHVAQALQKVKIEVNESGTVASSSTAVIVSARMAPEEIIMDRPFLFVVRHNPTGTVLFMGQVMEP

B1: full length t-PA (native human tissue plasminogen activator) (protein)
chain: SYQVICRDEKTQMIYQQHQSWLRPVLRSNRVEYCWCNSGRAQCHSVPVKSCSEPRCFNGGTCQQALYFSDFVCQCPEGFAGKCCEIDTRATCYEDQGISYRGTWSTAESGAECTNWNSSALAQKPYSGRRPDAIRLGLGNHNYCRNPDRDSKPWCYVFKAGKYSSEFCSTPACSEGNSDCYFGNGSAYRGTHSLTESGASCLPWNSMILIGKVYTAQNPSAQALGLGKHNYCRNPDGDAKPWCHVLKNRRLTWEYCDVPSCSTCGLRQYSQPQFRIKGGLFADIASHPWQAAIFAKHRRSPGERFLCGGILISSCWILSAAHCFQERFPPHHLTVILGRTYRVVPGEEEQKFEVEKYIVHKEFDDDTYDNDIALLQLKSDSSRCAQESSVVRTVCLPPADLQLPDWTECELSGYGKHEALSPFYSERLKEAHVRLYPSSRCTSQHLLNRTVTDNMLCAGDTRSGGPQANLHDACQGDSGGPLVCLNDGRMTLVGIISWGLGCGQKDVPGVYTKVTNYLDWIRDNMRP
As to B1, the “residual enzyme activity after 1 hour incubation with PAI-1 (PAI-1 resistance)” value was “Full length t-PA preserve the enzyme activity up to 54%”.
